Results published in patent US20120108455A1.

Assays:
[1] = molecular target: Myc-tag marker (Alpha Diagnostic Cat # Myc15-R); experiment: ELISA, 25% human serum in KRB, pH 6.0
[2] = molecular target: Multifusion-tagged marker (Alpha Diagnostic Cat # MFPM20-C); experiment: ELISA, 25% human serum in KRB, pH 7.4
[3] = molecular target: Myc-tag marker (Alpha Diagnostic Cat # Myc15-R); experiment: ELISA, 25% human serum in KRB, pH 7.4
[4] = molecular target: FLAG-tag marker (Alpha Diagnostic Cat # FLAG15-R); experiment: ELISA, 25% human serum in KRB, pH 6.0
[5] = molecular target: FLAG-tag marker (Alpha Diagnostic Cat # FLAG15-R); experiment: ELISA, 25% human serum in KRB, pH 7.4

Substance | Kd [1] [µg/mL] | Kd [2] [µg/mL] | Kd [3] [µg/mL] | Kd [4] [µg/mL] | Kd [5] [µg/mL]
anti-myc antibody (Abcam, #ab1326) | 0.00773 | 0.02 | 0.00798 |  | 
anti-FLAG antibody (Abcam, ab1238) |  |  |  | 0.135 | 0.224
